According to patent publication US20220363762A1, “METHODS AND COMBINATIONS FOR THE TREATMENT OF CANCER USING IMMUNE CHECKPOINT INHIBITOR ANTIBODIES” (ASTRAZENECA AB, priority 2020, published 2022):

B1: Tremelimumab (antibody)
VL: PSSLSASVGDRVTITCRASQSINSYLDWYQQKPGKAPKLLIYAASSLQSGVPSRFSGSGSGTDFTLTISSLQPEDFATYYCQQYYSTPFTFGPGTKVEIKRTVAAPSVFIFPPSDEQLKSGTASVVCLLNNFYPREAKV
VH: GVVQPGRSLRLSCAASGFTFSSYGMHWVRQAPGKGLEWVAVIWYDGSNKYYADSVKGRFTISRDNSKNTLYLQMNSLRAEDTAVYYCARDPRGATLYYYYYGMDVWGQGTTVTVSSASTKGPSVFPLAPCSRSTSESTAALGCLVKDYFPEPVTVSWNSGALTSGVH
modifications: light chain variable region; heavy chain variable region
notes: anti-CTLA-4 antibody; arm T = tremelimumab 750 mg monotherapy

How the values were obtained:
Format in all cases: in vivo, human
[1] = tested on: peripheral blood T cell receptors (TCRs); test: Molecular analysis of peripheral blood T cell receptors (TCR clonal expansion); details: for Median expanded T cell clones at Day 29, n: Day 29, first cycle of Q4W dosing, spread in cell beside
From the text: This trend was not seen with monotherapy D or the lower dose T combination (T75+D) (FIG. 15). Additionally, greater clonal expansion of T-cells was associated with better OS and seen in D+T combination arms (FIG. 16).

advanced HCC = test: Randomized, open-label, multi-center clinical study of durvalumab and tremelimumab (Example 2): efficacy; details: for ORR, % / Median (95% CI) OS, mo: Table 1, per study arm; for Median (95% CI) OS, mo: 95% CI in cell beside; for Median PFS (95% CI): patients with advanced HCC
Description: The study disclosed below is a randomized, open-label, multi-center, global, clinical study to assess the efficacy and safety of durvalumab monotherapy and durvalumab plus tremelimumab combination therapy versus sorafenib in the treatment of immune checkpoint inhibitor-naïve patients with HCC who progressed on, were intolerant to, or refused sorafenib. In the foregoing disclosure, a flat-dose regimen of 1500 mg (approximately equivalent to 20 mg/kg) of durvalumab plus 300 mg (equivalent to 4 mg/kg) of tremelimumab was used in this study.
The study population included patients 18 years of age or older with advanced HCC, Barcelona Clinic Liver Cancer Stage B (not eligible for locoregional therapy) or stage C, and Child-Pugh A classification liver disease. Patients must not have received any prior systemic therapy for HCC. Patients were stratified according to macrovascular invasion (yes versus no), etiology of liver disease (hepatitis B virus [confirmed HBV] versus hepatitis C virus [confirmed HCV] versus others), and performance status (Eastern Cooperative Oncology Group [ECOG] 0 versus 1).
A total of 332 patients were enrolled (T300+D, n=75; durvalumab, n=104; tremelimumab, n=69; T75+D, n=84). Patients were randomized in an equal ratio to groups treated with durvalumab 1500 mg monotherapy (D), tremelimumab 750 mg monotherapy (T), combination therapy with durvalumab 1500 mg plus tremelimumab 75 mg×4 doses (T75+D) followed by durvalumab Q4W, combination therapy with durvalumab 1500 mg plus tremelimumab 300 mg xl dose (T 300+D) followed by durvalumab Q4W. Upon closure to further enrollment into the T75+D arm, patients were randomized in an equal ratio to groups treated with D, T300+D, and Sorafenib. Durvalumab and tremelimumab were administered via intravenous (IV) infusion every 4 weeks (Q4W). Sorafenib was administered orally BID (see FIGS. 3 and 4).
(§1) Tremelimumab 750 mg via IV infusion Q4W starting at Week 0 for seven doses and then Q12W until confirmed PD, unacceptable toxicity, or any discontinuation criterion was met. (Note: If a patient's weight decreased to ≤30 kg, the patient received weight-based dosing of tremelimumab 10 mg/kg Q4W, until the weight increased to >30 kg, at which point the patient received the flat dose of tremelimumab 750 mg Q4W).
as §1, with “Durvalumab 1500 mg monotherapy • Durvalumab 1500” for “Tremelimumab 750”, “0” for “0 for seven doses and then Q12W”, “durvalumab 20” for “tremelimumab 10”, “durvalumab 1500” for “tremelimumab 750”, “Q4W.)” for “Q4W).”
Durvalumab 1500 mg plus tremelimumab 75 mg×4 doses combination therapy (Arm B) • Durvalumab 1500 mg plus tremelimumab 75 mg×4 doses starting at Week 0, followed by durvalumab 1500 mg monotherapy Q4W starting 4 weeks after the final infusion of the combination therapy until confirmed PD, unacceptable toxicity, or any discontinuation criteria was met. (Note: If a patient's weight decreased to 30 kg or below (≤30 kg), the patient received weight-based dosing of durvalumab 20 mg/kg Q4W and tremelimumab 1 mg/kg Q4W, until the weight increased to >30 kg, at which point the patient received the original assigned flat dose of durvalumab 1500 mg Q4W with or without tremelimumab 75 mg Q4W.)
Durvalumab 1500 mg plus tremelimumab 300 mg×1 dose combination therapy (Arm C) • Durvalumab 1500 mg plus tremelimumab 300 mg×1 dose starting at Week 0, followed by durvalumab 1500 mg monotherapy Q4W starting 4 weeks after the first and final infusion of the combination therapy until confirmed PD, unacceptable toxicity, or any discontinuation criteria was met. […]

[2] = Tremelimumab trough concentration after the first dose (Cmin); details: 300 mg tremelimumab
Description: (§2) Finally, an exposure-response model was developed to describe the relationship between tremelimumab exposure and proliferating CD8+Ki67+ T cells in patients with uHCC. Relationships between tremelimumab trough concentration after the first dose (Cmin) and the maximum change from baseline (CFB) for CD8+ Ki67+ T cell counts were evaluated using linear and non-linear regression models. Covariate effects were evaluated on the model intercept and the drug effect (Emax) using a stepwise search approach. The relationship between CD8+ Ki67+ T cell count CFB and tremelimumab trough concentration was best described by an Emax model. The only statistically significant and well estimated covariate effect was the baseline CD8+ Ki67+ T cell count on Emax. The maximum effect was higher in patients with lower baseline CD8+ Ki67+ T cell counts and lower in patients with higher baseline CD8+ Ki67+ T cell counts. At the 10th, median, and 90th percentiles of baseline CD8+ (3, 9, and 25 cells/uL), the maximum effect is 593%, 341%, and 77.9% change from baseline, respectively.

[3] = tested on: proliferating CD8+Ki67+ T cells; test: Exposure-response model: tremelimumab exposure versus proliferating CD8+Ki67+ T cells
Description: as §2

Molecule	clonal expansion of T cells in responders compared to non-responders ([1]; Day 29)	Median expanded T cell clones at Day 29, n [1]	median increased T-cell clonal expansion, difference between arms ([1]; day 29, D versus T75+D arms)	ORR, % (advanced HCC)	Median (95% CI) OS, mo (advanced HCC)	Median PFS (95% CI) (advanced HCC)	median Cmin [2]	maximum effect (Emax), change from baseline of CD8+ Ki67+ T cell count ([3]; 10th percentile of baseline CD8+ (3 cells/uL))	maximum effect (Emax), change from baseline of CD8+ Ki67+ T cell count ([3]; 90th percentile of baseline CD8+ (25 cells/uL))	estimated half-maximal effective concentration (EC50) ([3]; Emax model, Cmin versus maximum change from baseline of CD8+ Ki67+ T cell counts, uHCC patients)	maximum effect (Emax), change from baseline of CD8+ Ki67+ T cell count ([3]; median baseline CD8+ (9 cells/uL))
Durvalumab [reference compound]	not seen	32	no significant difference	10.6%	13.6 mo	2.07 (1.84-2.83) months					
B1		100		7.2%	15.1 mo	2.69 (1.87-5.29) months	12900 ng/mL	593%	77.9%	5.24 µg/mL	341%
